Experimental findings from publication PMC5426849 are described below.

One may read the Kd as the concentration at which binding is half-saturated. Read a low Kd as a tighter complex.

The test concerns the target fluoresceinated cortactin phospho-Y482 peptide. The test is described as follows: fluorescence polarisation. For orientation: Polarisation of emitted light reports the rotation of a fluorescent probe.
With “PLCγ N-terminal SH2 domain, cleaved from GST (domain or fragment)”, the Kd was above 5 µM.
The figure for “p85α C-terminal SH2 domain, cleaved from GST (domain or fragment)” is above 5 µM.
Under “p85α N-terminal SH2 domain, cleaved from GST (domain or fragment)” stands above 5 µM; under “Abl SH2 domain, monomeric, cleaved from GST (from UniProt P00519 127-217) (domain or fragment)”, above 5 µM; under “PLCγ C-terminal SH2 domain, cleaved from GST (domain or fragment)”, above 5 µM.
